Laboratory results from the DeepSol protein solubility set.

Assay: soluble on expression in E. coli; label from the status in PepcDB or PDB records

Sequence | soluble on expression in E. coli
MKKRKPMDYKTRIIYALLKSRLKTIDTYASRAEEIQDRQLRRILSSAAYTSTGIRYGFNRISSKECFARNVPVRDYESTQAEIERMLRGEKDVLCPGRCTWFAKSSGTTNSKSKFIPVPYRHLHYCHYQGGKDSLSLYLRNRPDSRFFTTKGLVLGGSHAPVSMNADIQVGDLSAILVENMPVLGNCMRVPSKETLLMDEWTEKLKAVVREVAHVRVGSLSGVPSWILVLIKDVLAATGRETLSDVWPELEVFFHGGISFAPYRAQYEKLIPSSRMQYMETYNASEGFFGIQDDPKDSGMLLMLDYGVYYEFIPMEHFGRPEAEAIPLEGVEKGRNYAMIISTLGGLYRYVLGDTVRFTSVKPYKIVITGRTKHYINAFGEELMVDNSDKALAATCKRFGVQAVDYTVAPHFFSEEGKGRHDWLIEFVSAPADPNAFAKALDAELQTLNSDYEAKRYADMTLLPLSLTIARSGLFHDWLTEQGKLGGQHKVPRLSNTPEIMRSILEMNSAAALEHHHHHH | not soluble
MKKSITTLDLNLLLCLQLLMQERSVTKAAKRINVTPSAVSKSLAKLRAWFDDPLFVNSPLGLSPTPLMVSMEQNLAEWMQMSNLLLDKPHHQTPRGLKFELAAESPLMMIMLNALSKQIYQRYPQATIKLRNWDYDSLDAITRGEVDIGFSGRESHPRSRELLSSLPLAIDYEVLFSDVPCVWLRKDHPALHQTWNLDTFLRYPHISICWEQSDTWALDNVLQELGRERTIAMSLPEFEQSLFMAAQPDNLLLATAPRYCQYYNQLHQLPLVALPLPFDESQQKKLEVPFTLLWHKRNSHNPKIVWLRETIKNLYASMA | soluble
MKKSLLGIISILSLTLLFSGCVDNSGAEEQAVLHAYVGAGMQMPMDEIAIEFEEKYGIKVEYDYSGSGALLSKIVASNQGDIFMPGDCSYVYQLQEKEMSTECSNVTKHIPVIAVQKGNPKNITGLSDLGQDDLELALGDSSISIGKLFTKILSKAETKGVNVTEAVNSNTVVTGATVKQVLLYVTEKNVDAAVVWSADAYENSDAVDIVPIESEYNIIKTVPISILSTTEDYDNAKLFYDFVNNEGKEIFEKHGFVALE | not soluble
MKKTAIALLAWFVSSASLAATPWQKITHPVPGAAQSIGSFANGCIIGADTLPVQSDNYQVMRTDQRRYFGHPDLVMFIQRLSHQAQQRGLGTVLIGDMGMPAGGRFNGGHASHQTGLDVDIFLQLPKTRWSQAQLLRPQALDLVSRDGKHVVPSRWSSDIASLIKLAAQDNDVTRIFVNPAIKQQLCLDAGNDRDWLRKVRPWFQHRAHMHVRLRCPADSLECEDQPLPPPGDGCGAELQSWFEPPKPGTTKPEKKTPPPLPPSCQALLDEHVL | not soluble
MKKTHVTIGLSNPKSPTNVGAVMRAAGCYQVDDVRYTGERYDRAAKFQTDTKKVASKIPLTSVNCLLDDLPEDMKVVCVELAEGAVSLPQFQHPDKAIYVFGPEDGSITQQVADRADHVVYVPTVGCMNLAATVNVLLYDRLAK | not soluble
MKKTIQQLVLERILILDGAMGTMIQQYNLREEDFRNERFAHIPGQLKGNNDLLCLTRPDVIRDIHRKYLEAGADIIETNTFSSTTISMADYHVQEYVREMNQAAVKLAREVADEYTALNPDKPRFVAGSVGPTNKTCSMSPDVNNPAYRAVTYDEMADAYQQQMEAMLESGVDALLIETIFDTLNAKAAILAAERAMKATGVKVPVMLSVTVSDTGGRTLSGQTLEAFLASVQHADIFSVGLNCSFGARQLKPFLEQLAARAPYYISAYPNAGLPNSLGKYDQTPADMAHEVKEYVHEGLINIIGGCCGTTDAYIAEYPALIAGAKPHIPVCKPDCMWLSGLELLEVKPEINFVNVGERCNVAGSRKF | not soluble
MKKVAIVGLGWLGMPLAMSLSARGWQVTGSKTTQDGVEAARMSGIDSYLLRMEPELVCDSDDLDALMDADALVITLPARRSGPGDEFYLQAVQELVDSALAHRIPRIIFTSSTSVYGDAQGTVKETTPRNPVTNSGRVLEELEDWLHNLPGTSVDILRLAGLVGPGRHPGRFFAGKTAPDGEHGVNLVHLEDVIGAITLLLQAPKGGHIYNICAPAHPARNVFYPQMARLLGLEPPQFRNSLDSGKGKIIDGSRICNELGFEYQYPDPLVMPLE | soluble
MKKYNIPVEATLEVIGGKWKVVILCHLTKGTKRTSELKRSMPGITQKMLTQQLRELEDDGVIQRKVYNQVPPKVEYSLTDYGWSLESILDSLCSWGECHLEKEGNTSMLIAEGE | not soluble
MKLASYLQENIVVEKNGRFTIPIKKQYRSKVSGTVIDTSSSGATVFMEPKEVGALYEQLDDLLAAESYEVETILYTLTASVLAIEKELHLAMDIMHHYDVLFAKAKYGRSIDGVIPLEHHHHHH | not soluble
MKLCGKLANITTVDYGGIACHAGVDRRISLHNFTISLPESGNPMSATFDPDNLRASLLALNVIDPLSLDGQAYQRFYGLAGLGGENVVRSWLGRLDVDGYEIVGQVWLPESPVATLFLFHGFYDHMGLYRHVIEWALTQGFAVISCDLPGHGLSSGSRASINDFAEYQVVLQRLLLEAGSLGLPHPWHLCGQSTGGAIVIDHLLHQGAESPAQGEVILLAPLVRPRAWGWSRFSYRLLKPFVSGIARRFTENSNAPAFLPFLLADPLQPRRLPTAWVGALAQWIVRVESAPRSLRSPIIIQGDADMTVDWSHNLAVLKDKFSQPHILMLGHARHHLANETPELRARYFDFVKGRLG | not soluble
MKLDPQTLAHITSATLGNYNRVADDFREGTRDHDVSQNIDALLRHIEGSAPWQILDFGCGPGRDLKTFTAMGHVAVGLDGSERFAEMARAETGCEVFQQNFLELDLPQGRFDGIFANAVLFHIPRQELPRVLRELYATLKPGGVLFSSNPRGQNQEGWQGERYGAYHDLETWRQLLTDAGFAELEHYYRPAGLPRDQQPWLASVWRRLEHHHHHH | not soluble
MKLELSYSDHLQLSESLNELGQTTRITQLEPGEGKYTMSFKQSTGIALAEIQSTQPLLYEGWGTTWSVDFNWITPTCHLNDPFGYCEGYEMKETSLGGFNTLNTSPGNSWGKYSNNCSSTACMLDKNILMKMLKECNAAQAIDNLSKARGLDVSSESLYQLKKLTRKDLVRGIMNPTKYYDLIVACLEGGDKRGYRKGLTKNYRLLGEIVQLSHDSRRMSSPMTLSDVCQYLDTGQASLYRVCQDYFGMGIIEMMTQIRLEEARRALLMFKQNEKNHALTVRDVALGYGFKHQGRFSRRYFTSFGELPSQTLDRSQEL | not soluble
MKLERILPFSKTLIKQHITPESIVVDATCGNGNDTLFLAEQVPEGHVYGFDIQDLALENTRDKVKDFNHVSLIKDGHENIEHHINDAHKGHIDAAIFNLGYLPKGDKSIVTKPDTTIQAINSLLSLMSIEGIIVLVIYHGHSEGQIEKHALLDYLSTLDQKHAQVLQYQFLNQRNHAPFICAIEKIS | not soluble
MKLIGIVGSNADSSYNRLLLQYIGKEFYKMFDLEILEIKDIPMFNQSKDQTNSVLIQNMNRKILQADGVIIATPEHNHTIPAGLKSVLEWLSFKIHPLENKPVMIVGCSYYDQGTSRAQLHLRQILDAPGVNAIVMPGNEFLLGKAKEAFDENGNLIAEGTRQFLESTLQKFVEFIDVISKLEGAKPKDLPEDLHAKGTIETTIEGVDMAADDWVEQAAEAVQAVEGDTYVKLDRGILTVDQLNYFLKSMPMELTYADSNNQFLYYNKKMAAEEMFAKRQPGQVGNPLANCHPPKALKNVEWVIQQLRSGKTDAIRVHVPMHGPDTYVVHNYQAMYDDNGNYAGINEYILDFKPIVDWYLKQTGQELVGGKNVDAVSGASKKEAPETADSVSSASVHEEESATEKPTVDSVSSASIKE | not soluble
MKLKLFFHIVLLCFSLPIWAMKTVDVTASPKMDDQARMNLAQEFANKQQWIDVFNIMYPMALEGNITAQSNLGMLYNLGRGTVRDYEKAYWWFSEAAEKGSVKGLNNLGVMYLRGDYVKQNTEQAIKLFERTAQAKDTDAMMMLSNIYRLQNQPEKIIGMAEESRLEHHHHHH | not soluble
MKLNSPSRIHMGLIDLNGELGRVDGGVGVALDYPNFQIEGKESSEIELDSKIEIDEKDRENLESRIKNAARNVLDIIGEDGISLKINEAILSHSGLGSGTQVSLSTGKITSLVYGQDLNAETLAKITGRGGTSGIGVAAFETGGFIVDGGHTFGEGKDKIDFRPSSASKDVKPSPVLFRHDFDWDIVLTIPKGEQVCGDREVDIFRKFCPVPSEDVQKICRLVLMKMMPAVIEKDFNSFGMAVNELQNLGFKRAEVGLQKESLKQLLSKLQDVSYSGISSFGPTIYSLGDKDTITEISNEIFDKFGIDGEIISTKANNSGYEIIK | not soluble
